Molecular target: T1, ZNF143 DBD (UniProt P52747 237-440)
T1 sequence: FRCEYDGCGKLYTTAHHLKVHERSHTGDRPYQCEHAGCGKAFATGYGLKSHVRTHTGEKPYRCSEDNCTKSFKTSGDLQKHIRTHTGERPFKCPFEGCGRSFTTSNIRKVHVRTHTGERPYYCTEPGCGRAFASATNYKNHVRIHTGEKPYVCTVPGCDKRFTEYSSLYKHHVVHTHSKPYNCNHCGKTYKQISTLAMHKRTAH
Test: EMSA; 20 fmol 32P probe; 4% native PAGE in 0.25x TBE; competition: 20 min preincubation at room temperature, 10 uL; buffer as in ref 33 (not given); competitor excess 200-fold (Methods) or 1000-fold (Fig 2E legend)
Settings: protein: recombinant, blunt

B1: SBS/B (dsDNA)
DNA 1: TGTCCTGGTGCATGGTGGTCGGA
DNA 2: TCCGACCACCATGCACCAGGACA
binding result: binds

B2: mut SBS/C- (dsDNA)
DNA 1: GTTTTTAAAACGTGTGCATTATTCTCC
DNA 2: GGAGAATAATGCACACGTTTTAAAAAC
binding result (label: 5' 32P): no binding

B3: mut SBS/B- (dsDNA)
DNA 1: CGATTACCATGCACCAGGACAGG
DNA 2: CCTGTCCTGGTGCATGGTAATCG
binding result (label: 5' 32P): no binding

B4: SBS/A (dsDNA)
DNA 1: CAGCCCAATGGAAGCTGGGGGCG
DNA 2: CGCCCCCAGCTTCCATTGGGCTG
binding result (label: 5' 32P): no binding

B5: SBS/C (dsDNA)
DNA 1: TTTTACCCAGTGTGCATTATTCTCC
DNA 2: GGAGAATAATGCACACTGGGTAAAA
binding result: binds

— paper PMC3936768, “Transcription factor abundance controlled by an auto-regulatory mechanism involving a transcription start site switch”
